Results taken from paper PMC4337610.

Columns and labels:
[1] = target: Hfq wild-type (Escherichia coli) (UniProt P0A6X3); test: X-ray crystallography; conditions: BLI: 25 mM Tris pH 7.5, 50 mM NaCl, 50 mM KCl, 1 mM MgCl2, 1 mM DTT, 0-500 nM Hfq, temperature not stated; EMSA: 1x structure buffer, 1 ug yeast RNA, 37 C …
[2] = target: Hfq wild-type (Escherichia coli) (UniProt P0A6X3); test: BLI; conditions: BLI: 25 mM Tris pH 7.5, 50 mM NaCl, 50 mM KCl, 1 mM MgCl2, 1 mM DTT, 0-500 nM Hfq, temperature not stated, EMSA: 1x structure buffer, 1 ug yeast RNA, 37 C …
[3] = target: HfqRim R19A;P21A;Q33A;Q35A;T49A;R66A (UniProt P0A6X3); test: BLI; conditions: BLI: 25 mM Tris pH 7.5, 50 mM NaCl, 50 mM KCl, 1 mM MgCl2, 1 mM DTT, 0-500 nM Hfq, temperature not stated; EMSA: 1x structure buffer, 1 ug yeast RNA, 37 C …
Hfq66 [4] = target: Hfq66 (UniProt P0A6X3); test: BLI; conditions: BLI: 25 mM Tris pH 7.5, 50 mM NaCl, 50 mM KCl, 1 mM MgCl2, 1 mM DTT, 0-500 nM Hfq, temperature not stated; EMSA: 1x structure buffer, 1 ug yeast RNA, 37 C …
[5] = target: Hfq wild-type (Escherichia coli) (UniProt P0A6X3); test: competition; conditions: BLI: 25 mM Tris pH 7.5, 50 mM NaCl, 50 mM KCl, 1 mM MgCl2, 1 mM DTT, 0-500 nM Hfq, temperature not stated; EMSA: 1x structure buffer, 1 ug yeast RNA, 37 C …
[6] = target: Hfq wild-type (Escherichia coli) (UniProt P0A6X3); test: EMSA; conditions: BLI: 25 mM Tris pH 7.5, 50 mM NaCl, 50 mM KCl, 1 mM MgCl2, 1 mM DTT, 0-500 nM Hfq, temperature not stated; EMSA: 1x structure buffer, 1 ug yeast RNA, 37 C …
Hfq66 [7] = test: BLI; conditions: 1 uM RydC; BLI: 25 mM Tris pH 7.5, 50 mM NaCl, 50 mM KCl, 1 mM MgCl2, 1 mM DTT, 0-500 nM Hfq, temperature not stated; EMSA: 1x structure buffer, 1 ug yeast RNA, 37 C …; scale: fold lower affinity than without RydC

Question: With “GGCUUCCGAUGUAGACCCGUCCUCCUUCGCCUGCGUCACGGGUCCUGGUUAGACGCAGGCGUUUUCUG [RydC (crystal)]” as the substance, how does the binding [1] read?
Answer: binds

Question: How did the Kd [2] turn out when “GGUUGUUUAUAUUACGAUAAUUAUUAGGCAUUAACGGGAACCGGAGCGUUCCCGAUUCACCAUGGAUGGCCUUUUCGGCAAGGGCUCCUCCCUUCCUCUGUUCUACGUCGGAUAACUGGCUCACGGAAUUGUCCGUGGG [cfa1]” was run?
Answer: binds

Question: And the Kd [3]?
Answer: binds

Question: And the binding (Hfq66 [4])?
Answer: binds

Question: “GGUUCCGAUGUAGACCCGUCCUCCUUCGCCUGCGUCACGGGUCCUGGUUAGACGCAGGCGUUUUCU [RydC (EMSA transcript)]” was tested. Which binding [5] did it give?
Answer: binds

Question: What about the binding [6] of the same substance?
Answer: binds

Question: cfa1 was tested. Which binding signal (fold lower affinity than without RydC) ([2]; 1 uM RydC) did it give?
Answer: 5

Question: And the binding signal (Hfq66 [7])?
Answer: 100
